Test results taken from patent US20260265379A1.

Target: BTN3A expressed at the cell surface (human), O00481
Assay: cell-based or functional assay

Sequence of BTN3A expressed at the cell surface (human), O00481 (O00481 30-513): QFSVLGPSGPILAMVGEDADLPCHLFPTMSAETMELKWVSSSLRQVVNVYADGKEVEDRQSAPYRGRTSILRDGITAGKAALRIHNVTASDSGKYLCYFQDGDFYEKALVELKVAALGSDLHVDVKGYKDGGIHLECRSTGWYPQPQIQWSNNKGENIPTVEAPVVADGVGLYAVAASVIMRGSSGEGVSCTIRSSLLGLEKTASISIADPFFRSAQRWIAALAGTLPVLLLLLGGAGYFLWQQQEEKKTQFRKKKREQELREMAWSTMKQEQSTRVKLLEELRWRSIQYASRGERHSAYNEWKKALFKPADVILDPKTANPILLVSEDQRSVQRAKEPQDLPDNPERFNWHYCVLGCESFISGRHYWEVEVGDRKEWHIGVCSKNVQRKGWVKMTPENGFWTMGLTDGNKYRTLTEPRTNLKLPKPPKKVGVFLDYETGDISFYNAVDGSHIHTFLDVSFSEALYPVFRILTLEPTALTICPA

Jurkat-Vy9Vo2 TCR MOP activation at 0.5 nM (fold-change to medium) | Jurkat-Vy9Vo2 TCR MOP activation at 5 nM (fold-change to medium) | Binder
3.7 | 5.4 | bsAb061 (bispecific antibody) heavy: QVQLVQSGAEVKKPGASVKLSCKASGYIFTRYYMYWVKQRPGQGLEWIGEINPNNGGTKFNEKFKNRATLTVDKSISTAYMELSRLRSDDTAVYYCSREDDYDGTPFAMDYWGQGTLVTVSSASTKGPSVFPLAPSSKSTSGGTAALGCLVKDYFPEPVTVSWNSGALTSGVHTFPAVLQSSGLYSLSSVVTVPSSSLGTQTYICNVNHKPSNTKVDKRVEPKSCDKTHTCPPCPAPEFEGGPSVFLFPPKPKDTLMISRTPEVTCVVVDVSHEDPEVKFNWYVDGVEVHNAKTKPREEQYNSTYRVVSVLTVLHQDWLNGKEYKCKVSNKALPASIEKTISKAKGQPREPQVYTLPPSREEMTKNQVSLTCLVKGFYPSDIAVEWESNGQPENNYKTTPPVLDSDGSFFLYSKLTVDKSRWQQGNVFSCSVMHEALHNHYTQKSLSLSPG light: not shown
4.3 | 5.8 | bsAb062 (bispecific antibody) heavy: QVQLVQSGAEVKKPGASVKLSCKASGYIFTRYYMYWVKQRPGQGLEWIGEINPNNGGTKFNEKFKNRATLTVDKSISTAYMELSRLRSDDTAVYYCSREDDYDGTPFAMDYWGQGTLVTVSSASTKGPSVFPLAPSSKSTSGGTAALGCLVKDYFPEPVTVSWNSGALTSGVHTFPAVLQSSGLYSLSSVVTVPSSSLGTQTYICNVNHKPSNTKVDKRVEPKSCDKTHTCPPCPAPEFEGGPSVFLFPPKPKDTLMISRTPEVTCVVVDVSHEDPEVKFNWYVDGVEVHNAKTKPREEQYNSTYRVVSVLTVLHQDWLNGKEYKCKVSNKALPASIEKTISKAKGQPREPQVYTLPPSREEMTKNQVSLTCLVKGFYPSDIAVEWESNGQPENNYKTTPPVLDSDGSFFLYSKLTVDKSRWQQGNVFSCSVMHEALHNHYTQKSLSLSPG light: not shown

The remaining lines, values behind:

Binder | Jurkat-Vy9Vo2 TCR MOP activation at 0.5 nM (fold-change to medium) | Jurkat-Vy9Vo2 TCR MOP activation at 5 nM (fold-change to medium)
bsAb056 (bispecific antibody, not shown: a dimerising Fc or GST; small tags and cut ends) heavy 1: GGGGSGGGGSGGGGSGGGGSQVQLVQSGVEVKKPGASVKVSCKASGYTFTNYYMYWVRQAPGQGLEWMGGINPSNGGTNFNEKFKNRVTLTTDSSTTTAYMELKSLQFDDTAVYYCARRDYRFDMGFDYWGQGTTVTVSSGGGGSGGGGSGGGGSGGGGSEIVLTQSPATLSLSPGERATLSCRASKGVSTSGYSYLHWYQQKPGQAPRLLIYLASYLESGVPARFSGSGSGTDFTLTISSLEPEDFAVYYCQHSRDLPLTFGGGTKVEIK heavy 2: QVQLVQSGAEVKKPGASVKLSCKASGYIFTRYYMYWVKQRPGQGLEWIGEINPNNGGTKFNEKFKNRATLTVDKSISTAYMELSRLRSDDTAVYYCSREDDYDGTPFAMDYWGQGTLVTVSS light: not shown | 7 | 10
bsAb031 (bispecific antibody) heavy: not shown light: EIVLTQSPATLSLSPGERATLSCRASKGVSTSGYSYLHWYQQKPGQAPRLLIYLASYLESGVPARFSGSGSGTDFTLTISSLEPEDFAVYYCQHSRDLPLTFGGGTKVEIKRTVAAPSVFIFPPSDEQLKSGTASVVCLLNNFYPREAKVQWKVDNALQSGNSQESVTEQDSKDSTYSLSSTLTLSKADYEKHKVYACEVTHQGLSSPVTKSFNRGEC | 1.8 | 2.2
bsAb032 (bispecific antibody) heavy: not shown light: EIVLTQSPATLSLSPGERATLSCRASKGVSTSGYSYLHWYQQKPGQAPRLLIYLASYLESGVPARFSGSGSGTDFTLTISSLEPEDFAVYYCQHSRDLPLTFGGGTKVEIKRTVAAPSVFIFPPSDEQLKSGTASVVCLLNNFYPREAKVQWKVDNALQSGNSQESVTEQDSKDSTYSLSSTLTLSKADYEKHKVYACEVTHQGLSSPVTKSFNRGEC | 0.9 | 1
